Patent US12351833B2, “Unspecific peroxygenase enzyme variants for selective fatty acid epoxidation or hydroxylation” (CONSEJO SUPERIOR DE INVESTIGACIONES CIENTÍFICAS (CSIC), priority 2019, dated 2025)
Substitutions are numbered along the chain they refer to. Names and notes keep the numbering of the source. Values belong to the molecule of their own block, whether it stands above or below them.

How the values were obtained:
Type in all cases: biochemical
[1] = Reaction of UPO enzyme with α-linolenic acid and H2O2, products analysed by GC-MS; details: for Conversion of α-linolenic acid: 30° C., 50 mM phosphate pH 5.5, 30 min
Procedure: (§1) Chromatographic analyses were carried out in a gas chromatograph coupled to a mass-spectrometry detector. The column used was a fused-silica DB-5HT capillary column (30 m×0.25 mm internal diameter×0.1 μm film thickness). Oven was heated from 120° C. (1 min) to 300° C. (5 min) at 5° C.·min. Injection was performed at 300° C. and transfer line was maintained at 300° C. Compounds were identified by comparison of their mass spectra with those of authentic standards and those from the NIST and Wiley libraries as well as by mass fragmentography. Quantification of the products was carried out by integrating the total ion peak areas, using external standard curves of the same or closely related compounds.
Reactions were performed in an embodiment consisting of rMroUPO (0.2 μM), incubated with α-linolenic acid (100 μM) and H2O2 (1,250 μM) at 30° C., in 50 mM phosphate, pH 5.5, for 30 min. Extraction and separation of the reaction products was carried out as described in Example 3. Since no available commercial standards of epoxidized α-linolenic acid were available, they were chemically synthesised as follows: a solution of peracetic acid (1.8 mmol, 3.6 equiv) and NaOAc (0.7 mmol; 1.4 equiv) was added to α-linolenic acid (0.5 mmol) using a syringe pump at 0° C. for 1 h. The mixture was stirred at 0° C. for an additional h. Products were recovered by liquid-liquid extraction with t-butyl-methyl-ether, resulting in a mixture of mono- and di-epoxides. Identification of the compounds was made by comparison of the mass spectra with those of the synthesised standards and by mass fragmentography. Quantification was carried out as detailed in Example 3.
Reactions and analyses of the products were performed as in Example 8. FIG. 7 illustrates a chromatogram of the reaction products, among which single epoxides, di-epoxides and other epoxidized derivatives. Conversion of the substrate attained 97%, of which 92% (of which 88% are di-epoxides) represented only epoxides and a mere 8% other epoxide derivatives. Therefore, the selectivity towards only epoxidation reached 11.50.

[2] = Reaction of UPO enzyme with linoleic acid and H2O2, products analysed by GC-MS; details: for Conversion of linoleic acid / selectivity towards only epoxidation (ratio between only epoxides and other oxygenation products) / share of products that are hydroxylated epoxides / share of products that are only epoxides: enzyme 0.6 μM, linoleic acid 100 μM, H2O2 1,250 μM; for Conversion of linoleic acid: 30° C., 50 mM phosphate pH 5.5, 30 min, 20% acetone; for selectivity towards only epoxidation (ratio between only epoxides and other oxygenation products) / share of products that are hydroxylated epoxides / share of products that are only epoxides: pH 5.5, 30° C., 30 min
Procedure: as §1
An embodiment was designed in which rMroUPO (0.6 μM) was incubated with linoleic acid (100 μM, previously dissolved in acetone so that the final acetone concentration in the embodiment was of 20%) and H2O2 (1,250 μM) at 30° C. in 50 mM phosphate, pH 5.5, for 30 min. Identification and quantification of the products was conducted as detailed in Example 3.
Reactions were performed as in Example 6. Identification and quantification of the products is described in Example 3.

[3] = Reaction of UPO enzyme with oleic acid and H2O2, products analysed by GC-MS; details: for Conversion of the substrate (oleic acid) into products / selectivity towards only epoxidation (ratio between only epoxides and other oxygenation products) / share of products that are only epoxides / share of products that are other (hydroxylated) epoxides / epoxidation activity / epoxidized species detected (words): enzyme 0.2 μM, oleic acid 100 μM, H2O2 2,500 μM; for Conversion of the substrate (oleic acid) into products: 30° C., 50 mM phosphate pH 5.5, 30 min, 20% acetone; for selectivity towards only epoxidation (ratio between only epoxides and other oxygenation products) / share of products that are only epoxides / share of products that are other (hydroxylated) epoxides / epoxidation activity / epoxidized species detected (words): pH 5.5, 30° C., 30 min
Procedure: The rMroUPO (0.2 μM) was incubated with oleic acid (100 μM) and H2O2 (2,500 μM) at 30° C. in 50 mM phosphate, pH 5.5, for 30 min. Oleic acid had been previously dissolved in acetone so that the final acetone concentration attained 20% (v/v) in the embodiment. After the incubation time, the products were recovered by liquid-liquid extraction with t-butyl-methyl-ether. The organic solvent was removed under N2 current. N,O-Bis-(trimethylsilyl)trifluoroacetamide was employed to prepare the trimethylsilyl derivatives of the compounds to be separated by gas chromatography and identified by mass spectrometry.
as §1
Reactions with oleic acid and identification and quantification of the products were conducted as explained in Example 3.
The rMroUPO I153F/S156F mutated variant (SEQ ID NO: 3), in which isoleucine 153 and serine 156 were both replaced by phenylalanine residues, was constructed by site-directed mutagenesis, in a PCR reaction in which the following oligos—complementary to the region of the gene to be mutated, but bearing the desired mismatches—were used as primers: 5′-[…]-3′ (SEQ ID NO: 8), along with its reverse complementary counterpart. PCR reaction and sequencing of the mutated variant were carried out as described in Example 4. Expression, purification of the enzyme, reactions with oleic acid and GC-MS identification and quantification of the products were conducted as in Example 3.

[4] = enzyme 0.2 μM, α-linolenic acid 100 μM, H2O2 1,250 μM
[5] = α-linolenic acid 100 μM, enzyme 0.2 μM, H2O2 1,250 μM, pH 5.5, 30° C., 30 min

selectivity towards only epoxidation (ratio between only epoxides and other oxygenation products) [1, 5]: 0.79
share of products that are only epoxides [1, 5]: 44%
share of products that are other epoxides / other epoxide derivatives [1, 5]: 56%
selectivity towards only epoxidation (ratio between only epoxides and other oxygenation products) [2]: 0.27
share of products that are hydroxylated epoxides [2]: 79%
share of products that are only epoxides [2]: 21%
selectivity towards only epoxidation (ratio between only epoxides and other oxygenation products) [3]: 0.67
share of products that are only epoxides [3]: 40%
share of products that are other (hydroxylated) epoxides [3]: 57%
B1: rMroUPO: recombinant Marasmius rotula unspecific peroxygenase, SEQ ID NO: 1, encoded by SEQ ID NO: 9, expressed in E. coli (protein)
chain: SAHPWKAPGPNDSRGPCPGLNTLANHGFLPRNGRNISVPMIVKAGFEGYNVQSDILILAGKIGMLTSREADTISLEDLKLHGTIEHDASLSREDVAIGDNLHFNEAIFTTLANSNPGADVYNISSAAQVQHDRLADSLARNPNVTNTDLTATIRSSESAFFLTVMSAGDPLRGEAPKKFVNVFFREERMPIKEGWKRSTTPITIPLLGPIIERITELSDWKPTGDNCGAIVLSPEL
modifications: Recombinant Marasmius rotula unspecific peroxygenase enzyme, rMroUPO
Conversion of α-linolenic acid [1, 4]: 98%
Conversion of linoleic acid [2]: 98%
Conversion of the substrate (oleic acid) into products [3]: 94%

selectivity towards hydroxylation ([3]; oleic acid, products restricted to ω-1 and ω hydroxylated, keto and carboxylic species): total towards hydroxylation
B2: rMroUPO I153F/S156F mutated variant: rMroUPO in which isoleucine 153 and serine 156 were both replaced by phenylalanine (SEQ ID NO: 3) (protein)
chain: B1 chain with I153F, S156F
modifications: Variant of the invention which comprises the SEQ ID NO 1 and the amino acid substitutions I153F and S156F
epoxidation activity / epoxidized species detected (words) ([3]; listed as I153F/S156F mutated variant): completely abolishes the epoxidation activity
epoxidation activity / epoxidized species detected (words) ([3]; listed as I153F/S156F variant): completely abolished the MroUPO ability to epoxidize oleic acid
epoxidation activity / epoxidized species detected (words) ([3]; listed as MroUPO I153F/S156F mutated variant): No traces of epoxidized species were detected

increase of epoxidation selectivity relative to rMroUPO ([1]; α-linolenic acid): 14.6 fold
selectivity towards only epoxidation (ratio between only epoxides and other oxygenation products) [1, 5]: 11.50
share of di-epoxides among only epoxides [1, 5]: 88%
share of products that are only epoxides [1, 5]: 92%
share of products that are other epoxides / other epoxide derivatives [1, 5]: 8%
increase of epoxidation selectivity relative to rMroUPO ([2]; linoleic acid): 2.7 fold
selectivity towards only epoxidation (ratio between only epoxides and other oxygenation products) [2]: 0.72
share of products that are hydroxylated epoxides [2]: 58%
share of products that are only epoxides [2]: 42%
increase of epoxidation selectivity relative to rMroUPO ([3]; oleic acid): 4 fold
ratio between stearic acid epoxide and its additionally hydroxylated derivatives (words, vs MroUPO) ([3]; oleic acid): increased
selectivity towards only epoxidation (ratio between only epoxides and other oxygenation products) [3]: 2.67
share of products that are only epoxides [3]: 72%
share of products that are other (hydroxylated) epoxides [3]: 17%
B3: rMroUPO I153T mutated variant: rMroUPO in which isoleucine 153 was replaced by threonine (SEQ ID NO: 2) (protein)
chain: B1 chain with I153T
modifications: Variant of the invention which comprises the SEQ ID NO 1 and the amino acid substitution I153T
Conversion of α-linolenic acid [1, 4]: 97%
Conversion of linoleic acid [2]: 93%
Conversion of the substrate (oleic acid) into products [3]: 85%
